Among the data in article PMC6372703, “A thermostable laccase from Thermus sp. 2.9 and its potential for delignification of Eucalyptus biomass” (AMB Express, 2019) are Km, kcat and kcat/Km values, retold here.

For this data set, the system named is CCn1c(=NN=c2sc3cc(S(=O)(=O)O)ccc3n2CC)sc2cc(S(=O)(=O)O)ccc21. As to the kind of experiment: purified protein. Conditions: 20 mM sodium acetate, pH 5, 60 °C, 1 mM CuSO4.

As usually defined, the Km is the substrate concentration at which the rate is half of its maximum. One may read the kcat as the number of substrate molecules converted per active site and unit of time at saturation. As a reminder, the kcat/Km is the turnover number divided by the Michaelis constant. As for LAC_2.9 (Thermus sp. 2.9), the Michaelis constant (Km) turned out to be 590 ± 80 µM, the catalytic constant (kcat) amounted to 1 ± 0.04 s⁻¹ and the kcat/Km was 1700 ± 200 M⁻¹ s⁻¹.
